This passage reports Kd results from publication PMC7203548.

In assay [1] the target is OTK1-5 K237A ectodomain, biotinylated (pHL-Avitag3) (Drosophila melanogaster) (UniProt Q6AWJ9). The assay is described as follows: SPR; equilibrium, apparent KD; biotinylated OTK immobilised on SA chip from dialysed conditioned medium; Biacore T200, PBS, 0.05% Tween 20, 25°C.
Assay [2] has as its target PlexA_(ecto) (full-length ectodomain of Drosophila Plexin A, all ten domains, residues 28-1272), biotinylated (Drosophila) (UniProt Q9V491). Kind of assay: SPR; equilibrium, apparent KD; biotinylated PlexA constructs immobilised on SA chip from dialysed conditioned medium; Biacore T200, PBS, 0.05% Tween 20, 25°C. On the technique in general: In SPR one partner is held on a chip, and binding of the other changes the refractive index at the surface.
Chain of UniProt Q9V491 (Q9V491 entry or part of it): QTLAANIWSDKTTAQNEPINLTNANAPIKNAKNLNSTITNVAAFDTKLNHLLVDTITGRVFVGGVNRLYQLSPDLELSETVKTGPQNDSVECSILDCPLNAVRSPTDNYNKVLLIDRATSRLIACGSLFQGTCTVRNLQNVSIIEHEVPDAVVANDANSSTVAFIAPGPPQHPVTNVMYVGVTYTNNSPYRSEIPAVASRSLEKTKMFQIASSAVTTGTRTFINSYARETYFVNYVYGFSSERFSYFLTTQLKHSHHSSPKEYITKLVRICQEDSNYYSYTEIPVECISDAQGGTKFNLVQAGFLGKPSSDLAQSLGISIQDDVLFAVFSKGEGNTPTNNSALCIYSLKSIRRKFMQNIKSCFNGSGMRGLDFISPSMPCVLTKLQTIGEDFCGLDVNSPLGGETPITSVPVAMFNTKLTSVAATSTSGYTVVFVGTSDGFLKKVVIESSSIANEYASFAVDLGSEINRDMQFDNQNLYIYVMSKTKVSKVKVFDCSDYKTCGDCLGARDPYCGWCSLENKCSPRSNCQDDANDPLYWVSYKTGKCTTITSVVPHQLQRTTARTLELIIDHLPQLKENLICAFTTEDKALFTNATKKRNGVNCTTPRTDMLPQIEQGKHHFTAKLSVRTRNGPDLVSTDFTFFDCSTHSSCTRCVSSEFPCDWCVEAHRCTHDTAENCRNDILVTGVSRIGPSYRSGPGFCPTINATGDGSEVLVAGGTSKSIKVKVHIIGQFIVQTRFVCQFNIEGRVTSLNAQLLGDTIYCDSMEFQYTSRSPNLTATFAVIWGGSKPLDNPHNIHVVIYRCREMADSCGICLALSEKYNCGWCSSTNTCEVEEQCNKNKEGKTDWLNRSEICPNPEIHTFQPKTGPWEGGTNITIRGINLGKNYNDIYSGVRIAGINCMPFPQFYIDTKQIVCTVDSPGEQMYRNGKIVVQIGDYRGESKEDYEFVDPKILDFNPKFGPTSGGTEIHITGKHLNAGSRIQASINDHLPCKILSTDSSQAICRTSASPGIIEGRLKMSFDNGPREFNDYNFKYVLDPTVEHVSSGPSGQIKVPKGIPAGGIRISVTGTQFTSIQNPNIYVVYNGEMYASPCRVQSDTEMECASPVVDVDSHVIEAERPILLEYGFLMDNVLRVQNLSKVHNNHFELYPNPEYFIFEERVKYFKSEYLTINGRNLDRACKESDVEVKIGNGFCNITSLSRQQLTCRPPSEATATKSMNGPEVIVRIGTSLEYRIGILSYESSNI

Chain of UniProt Q6AWJ9 (Q6AWJ9 23-580 K237A): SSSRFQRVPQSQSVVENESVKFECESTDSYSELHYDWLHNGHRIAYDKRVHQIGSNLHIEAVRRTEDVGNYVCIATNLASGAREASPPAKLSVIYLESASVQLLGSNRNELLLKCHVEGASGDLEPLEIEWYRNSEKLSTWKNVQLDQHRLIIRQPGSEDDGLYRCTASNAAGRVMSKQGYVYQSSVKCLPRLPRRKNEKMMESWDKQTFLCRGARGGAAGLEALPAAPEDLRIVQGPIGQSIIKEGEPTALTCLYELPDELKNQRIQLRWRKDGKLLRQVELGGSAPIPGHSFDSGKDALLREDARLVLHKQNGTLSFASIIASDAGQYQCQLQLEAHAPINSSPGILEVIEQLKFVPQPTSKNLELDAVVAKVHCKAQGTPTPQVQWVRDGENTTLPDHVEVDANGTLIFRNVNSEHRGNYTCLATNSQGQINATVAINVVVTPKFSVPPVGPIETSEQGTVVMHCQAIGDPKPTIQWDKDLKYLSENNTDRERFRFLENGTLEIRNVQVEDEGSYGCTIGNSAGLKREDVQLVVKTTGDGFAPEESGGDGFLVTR

For “Sema1a ectodomain (Drosophila semaphorin 1a) (from UniProt Q24322 1-899) (ligand)”, the values for the Kd in assay [1] and in assay [2] were 4 µM and 7.4 µM, respectively.
